Assay: yeast display, Sf9 membrane polyspecificity reagent, FACS + sequencing; frameworks hold sequencing errors
Procedure, shortened: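 A nanobody's polyreactivity label depends on the gate it was sorted from. Yeast display cells were stained with 10% biotinylated, detergent-solubilized Sf9 membrane reagent for 1 hour at 4 °C, enriched on streptavidin microbeads and sorted by FACS. The low and high (top ~1%) gates were set on anti-HA fluorescence for expression and streptavidin fluorescence for reagent binding.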

Row | Sequence | polyreactivity (PSR sort gate)
1 | QVQLVESGGGLVQAGGSLRLTCAASGSTFSKNGMGWYRQAPGKEREFVAAISGSGGSTYYADSVRGRFTISRDNAKNTVYLQMNSLKPEDTAVYYCAARRVWYYISAYGYWGQGTQVTVSS | high polyreactivity
2 | QVQLVESGGGLVQAGGSLRLTCAASGSTFSPYAMGWYRQATGKERELVAAISASGGGTYYADSVKGRFTISRDYAKNTVYLQMNRLIPVDTAVYYCARDYGWDISKGRYGYWGQGTQVTVSS | low polyreactivity
3 | QVQLVESGGGLVQAGGSLRLTCAASGSTFTRYAMGWYRQAPGKERELVATIIFSGDRTYYADSVKGRFTISRDNAKNTVYLEMNSLKPEDTAVSYCNKYRYQWPYRRFDYWGQGTQVTVSS | high polyreactivity
4 | QVQLVESGGGLVQAGGSLRLTCAASGSTFVRYAMGWYRQAPGKERELVATIRRVGSTNYADSVKGRFTISRDNAKNTVYLQMNSLKPEDTEVYYCAARSLRYGRGMYYWGQGTQVTVSS | high polyreactivity
5 | QVQLVESGGGLVQAGGSLRLTCAASGSTFVRYVMGWYRQAPGKERELVAAISRRGGSTYYADSVKGRFTISRDNANNTVYLQMNSLKPEDTAVYYCARTVGYRTLLESDSWGQGTQVTVSS | high polyreactivity
6 | QVQLVESGGGLVQAGGSLRLTCAASGSTFYSNAMGWYRQAPGKERYLVAAITSRGDRTYYADSVKGRFTISRDNAKNTVYFQLNSLNPEDTAVYSCAAEQSWQGYAYYYWGQGTQVTVSS | high polyreactivity
7 | QVQLVESGGGLVQAGGSLRLTCAASGSTFYSYTMGWYRQAPGKERELVAVISSSGGRTYYADSVKGRFTISRDNAKNTVYFQMNSLKPEDTAVYYCAASQRGYFDYRLWSFRSDSWGQGTQVTVSS | high polyreactivity
8 | QVQLVESGGGLVQAGGSLRLTCAASGSTSGQNAMGRYRQAPGNERELVAAISSSAGSTYADSVKGRFTISRDNAKNTVYLQMNSLKPEDTAVYYCNVPYYYTRGSYGYWGQGTQVTVSS | low polyreactivity
9 | QVQLVESGGGLVQAGGSLRLTCAASGSTYYSYAMGWYRQATGKERELVAAITSRGDRTYYADSVQGRFTISRDNAKNTVYLQMNSLKPEDTAVYYCAAEQSWQGYAYYYCGQGTQVTVSS | high polyreactivity
10 | QVQLVESGGGLVQAGGSLRLTCAASGYIFSTYAMGSYRQAPGKERELVASISENGGSTYYADSVKGRFTISRDNAKNTVYLQMNSLKPEDTAVDYCNADAYVDVDDGDYWGEGTQVTVSS | low polyreactivity
11 | QVQLVESGGGLVQAGGSLRLTCAASGYIFYRYALGWYRKAPGKERELVAAINSGGSTYYADSVKGRFTISRDNAKNTVYLQMNSLKPEDTAVYYCNVLGWWHVWVYDYWGQGTQVTVSS | high polyreactivity
12 | QVQLVESGGGLVQAGGSLRLTCAASGYIIDWNTMVCYRHEPGKERELVAAITESSGSTYYADSVKGRFTISRDNAKNTVYLQMNSLKPEDTAVYYCAAELDVFVSICSRFHFEYWGQGTQVTVSS | low polyreactivity
13 | QVQLVESGGGLVQAGGSLRLTCAASGYKFKSNVMGWYRQAPGKERELVAAISWSGGRTYYADSLKGRFTISRDNAKNTVYLQMNSLKPEDTAVYYCAAVGRQSNYYVDYDYWGQGTQVTVSS | high polyreactivity
14 | QVQLVESGGGLVQAGGSLRLTCAASGYTFRAYVMGWYRQAPGKERELVAGITRRGGTTYYADSVKGRFTISRYNAKNTVYLQMNSLKPEDTAVYYCNAVYRSGSIPYDSWGQGTQVTVSS | high polyreactivity
15 | QVQLVESGGGLVQAGGSLRLTCAASGYTFVLNALGWYRQAPGKEREFVAAITWSGGSTYYADSVKGRFTISRDNAKNTVYLQMNSLKAEDTAVYYCAADPDSGQVPFDYWGQGTQVTVSS | low polyreactivity
16 | QVQLVESGGGLVQAGGSLRLTCAASGYTFYPYAMGWYRQAPGKERELVAAISWSGGSTYYADSVKGRFTISRDNAKNTVYLQMNSLKPEDTAVYYCNADSGWFGYDYWGKGTQVTVSS | low polyreactivity
17 | QVQLVESGGGLVQAGGSLRLTCAASVSIFSVYARGWYRQAPGKERELVADINIGGASTYYADSVKGRFTISRDNAKNTVFLQMNSVIPEDTAVYSCAKEYYEGYFPTFDYDYWGQGTQVNVSS | low polyreactivity
18 | QVQLVESGGGLVQAGGSLRLTCAASVSTIAGNAMGWYRQAPGKERELVAVITRVGSTNYADSVKGRFTISRDNAKNTVYLQMKSLKPEDTEVYYCARYGFLLDYWRGGYYWGQGTQVTVSS | high polyreactivity
19 | QVQLVESGGGLVQAGGSLRLTCDASGSTFVYYAMGWYRQAPGKERELVAAITFSGGTTFYADSVKGRFTISRDNANNTVYLQMNSLKPEDTAVYYCAADAGFADQYANYHGDDYWGQGTQVTVSS | low polyreactivity
20 | QVQLVESGGGLVQAGGSLRRTCAASGSIFVGYAMGWYRQEPGKERELVASITNGDSTNYADSVKGRFTISRDNAKNTVSYQMNSLKPEDTAVYYCAADYYSVHPSGWYGYEYWGQGTQVTVSS | low polyreactivity
21 | QVQLVESGGGLVQAGGSLRVSCAASGCTFVDYAMCWYRQAPGKERELVAGITSGGSTNYADSVKGRFTISRDNAKNTVYLQMNSVKPEDTAVYDCNADPGQDTPGYTRPEYDYWGQGTQVTVSS | low polyreactivity
22 | QVQLVESGGGLVQAGGSLRVSCAASGFTFSHYAMGWYRQAPGKERELVAAISWGGGSTYYADSVKGRFTISRDNAQNTVYLQMNSLKPEDTAVYYCAARYVLFSNRFDYWGQGTQVTVSS | high polyreactivity
23 | QVQLVESGGGLVQAGGSLRVSCAASGFTFYGYAMGWSRQAPGKEREVVAAISWSGGSTYYADSVKGRFTISRDNAKNTVYLLMNRLKAEDTAVYYCAKKWTAPGKGYPRSPGGYGYWGQGTQVTVSS | high polyreactivity
24 | QVQLVESGGGLVQAGGSLRVSCAASGIIFGPYVMGWSRQAPGKERELVATISRTGDTYYADSVKGRFTISRDNAKNTVYLQMNSLKPEDTAVYYCNTQDHGYGFTMDYWGQGTQVTVSS | low polyreactivity
25 | QVQLVESGGGLVQAGGSLRVSCAASGISFGHYTMGWYRQATGKERELVATITTSGGRTYYADSVKGRFTISRDNAKNTVYLQMNSLKPEDTAVYYCATLSWYPFEYWGQGTQVTVSS | high polyreactivity
26 | QVQLVESGGGLVQAGGSLRVSCAASGLTFRFYAMGWYRQAPGKERELVAAISTSGGSTYYADSVKGRFTISRDNAMNTVYLQMNSLKPEDTAVYYCAARARYYHSRYDYWGQGTQVTVSS | high polyreactivity
27 | QVQLVESGGGLVQAGGSLRVSCAASGLTSIHYMGWYRQAPGKERELVATITSSTGSTYYADSVKGRFTISRDNAKNTVYLQMNSLKPEDTAVDYCAAESFGADGPYQPSYDYWGQGTQVTVSS | low polyreactivity
28 | QVQLVESGGGLVQAGGSLRVSCAASGNIFGEYAMGWYRQAPGKERELVAAITNSGGRTHYADSVKGRFTISRDNAKNTVYLQMNSLKPEDTAVYYCAAPTKYRSRRYYWGQGTQVTVSS | high polyreactivity
29 | QVQLVESGGGLVQAGGSLRVSCAASGRIFILNTMGCYRQAPGKETELVAGISYSGSTYYADSVKGRFTISRDNAKNTVYLQMNSLKPEATAVYYCAAEYDAAWYNEGYYYWGQGTQVTVSS | low polyreactivity
30 | QVQLVESGGGLVQAGGSLRVSCAASGRIIGQYAMGWSRQAPGKEWELVASISRRGGSTYYAASVKGRFTISRDNAKKTVYLQMYSLKPEDTAVYYCAKERTYGHYDYWGQGTQVTVSS | high polyreactivity

From the nanobody polyreactivity screen of Harvey et al. (2022)
